Test results from patent US20040006777A1, “Human lymphoid protein tyrosine phosphatases” (HSC Research and Development Limited Partnership, priority 1998, published 2004).
“Also recorded” adds a separate entry of the source.

T1: Lyp1 (Homo sapiens, UniProt Q9Y2R2)
T1 construct: made in house; host or cells: COS cells (transient transfection, pcDNA3); anti-T7 immunoprecipitate
T1 sequence (Q9Y2R2 1-807): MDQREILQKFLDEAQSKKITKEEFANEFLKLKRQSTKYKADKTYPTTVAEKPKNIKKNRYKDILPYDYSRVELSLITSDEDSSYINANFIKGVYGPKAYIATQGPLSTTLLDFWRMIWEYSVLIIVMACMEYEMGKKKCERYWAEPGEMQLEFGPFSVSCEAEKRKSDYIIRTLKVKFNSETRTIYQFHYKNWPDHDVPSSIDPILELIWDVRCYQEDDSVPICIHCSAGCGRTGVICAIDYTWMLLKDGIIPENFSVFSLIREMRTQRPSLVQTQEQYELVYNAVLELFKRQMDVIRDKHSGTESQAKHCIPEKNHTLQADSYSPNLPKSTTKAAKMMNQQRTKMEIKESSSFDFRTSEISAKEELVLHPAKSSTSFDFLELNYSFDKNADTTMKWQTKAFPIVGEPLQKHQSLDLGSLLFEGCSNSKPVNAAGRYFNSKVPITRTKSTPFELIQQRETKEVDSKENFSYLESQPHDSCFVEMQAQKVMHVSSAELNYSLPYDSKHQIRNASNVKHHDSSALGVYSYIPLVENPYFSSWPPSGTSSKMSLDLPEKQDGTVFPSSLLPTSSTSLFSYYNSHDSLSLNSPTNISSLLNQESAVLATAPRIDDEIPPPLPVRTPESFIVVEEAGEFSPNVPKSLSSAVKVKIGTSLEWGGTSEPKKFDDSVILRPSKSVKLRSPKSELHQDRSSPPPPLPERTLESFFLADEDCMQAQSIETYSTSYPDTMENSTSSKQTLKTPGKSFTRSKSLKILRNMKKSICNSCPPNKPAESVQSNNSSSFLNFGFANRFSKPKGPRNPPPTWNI


How the values were obtained:
Syk = assay: Co-transfection of Lyp1 or Lyp-N and kinase cDNA, kinase immunoprecipitation, anti-phosphotyrosine Western blot; assay type: cell-based; conditions: co-transfection with Syk
Procedure: (§1) Western blotting was performed with anti-phosphotyrosine antibodies and chemiluminescent detection reagents. […] Syk was unaffected by Lyp1 (C).
(§2) Western blotting was performed with anti-phosphotyrosine antibodies and chemiluminescent detection reagents. Lyp1 reduced the tyrosine phosphorylation of Jak3 (C) while having little effect on Syk (D). No effect was seen when Syk was co-transfected with Lyp-N (D).
cDNA for the phosphatase Lyp1 and the indicated kinase, in the eucaryotic expression vector pcDNA3, were transiently transfected into either the COS-7 monkey epithelial cell line (A) or the 293T human epithelial cell line as indicated. 48 hours after transfection, cells were harvested, lysates made in 1 & NP-40 lysis buffer and immunoprecipitations performed with antibodies to the transfected kinase. Immunoprecipitates were washed, boiled in SDS sample buffer and electrophoresed on SDS-PAGE. After electro-transfer to nitrocellulose membrane, Western blotting was performed with anti-phosphotyrosine antibodies and chemiluminescent detection reagents. […] Lyp1 could also down-regulate Zap-70 after its activation by Fyn in 293-T cells (B, lanes 3 and 4). The closely related Zap family kinase Syk was also unaffected by Lyp1 (C). […]

Jak3 = assay: Co-transfection of Lyp1 and kinase cDNA in COS-7, kinase immunoprecipitation, anti-phosphotyrosine Western blot; assay type: cell-based; conditions: COS-7 cells
Procedure: as §2
cDNA for the phosphatase Lyp1 and the indicated kinase, in the eucaryotic expression vector pcDNA3, were transiently transfected into the COS-7 monkey epithelial cell line. 48 hours after transfection, cells were harvested, lysates made in 1% NP-40 lysis buffer and immunoprecipitations performed with antibodies to the transfected kinase. Immunoprecipitates were washed, boiled in SDS sample buffer and electrophoesed on SDS-PAGE. After electro-transfer to nitrocellulose membrane, Western blotting was performed with anti-phosphotyrosine antibodies and chemiluminescent detection reagents.

Lyp1 = molecular target: T1, Lyp1; assay: In vitro phosphatase assay with 33P labelled Raytide peptide and Lyp immunoprecipitates; assay type: biochemical; conditions: Lyp immunoprecipitates from transfected COS cells compared to control immunoprecipitates from untransfected cells
Procedure: Anti-Lyp immunoprecipitates from untransfected and pcDNA3-Lyp1 transfected cells were prepared in pervanadate free lysis buffer and incubated with ^33P labelled substrate Raytide. At the indicated time points reactions were stopped by the addition of charcoal and the free ^33P released from the peptide and now present in the supernatant measured by liquid scintillation counting.
Raytide peptide was ^33P labelled on tyrosine residues in vitro using the tyrosine kinase p60src and purified on phosphocellulose paper. Release of ^33P over time was measured in the phosphatase assay and compared to controls from untransfected cells.
Specifically, the synthetic peptide Raytide was phosphorylated according to the method described by Guan et al., (1994)(54), on tyrosine by p60src (Oncogene Science) as follows: 10 μg Raytide in 50 mM Hepes pH 7.5, 10 mM MgCl2, 0.067% mercaptoethanol, 0.05 mM ATP was incubated with 300 μCiγ^33P ATP per ml and 2 μg p60src in a final volume of 30 μl. The reaction was allowed to proceed for 30 minutes at 30° C. and was stopped by the addition of […] 10% phosphoric acid.
The sample was spotted onto two 1×1 cm sheets of P81 phophocellulose paper and extensively washed with 0.5% phosphoric acid. […]
The phosphorylated substrate was used in the phosphatase assay as described by Stueli et al (1989)(54). […] After centrifugation the free ^33P in the supernatant was measured.

Cbl = assay: Lyp1 transfection into COS-7 cells, Cbl immunoprecipitation, anti-phosphotyrosine blot; assay type: cell-based, monkey; conditions: Lyp1 transfected COS-7 cells, endogenous Cbl
Procedure: (A) Lyp immunoprecipitates from thymocytes (80×10^6 cells) stimulated with anti-CD3 were blotted with antiphsophotyrosine. A single phosphorylated band of 116 kD was detected co-immunoprecipitating with Lyp. Lyp protein loading was quantitated by anti-Lyp western blot after stripping. […] (C) Lyp1 was transfected into COS-7 cells and Cbl immunoprecipitates prepared from these and untransfected cells. Western blotting was performed with Lyp antibodies. The position of Lyp is indicted by an arrow. Cbl immunoprecipitates were also prepared and blotted with anti-phosphotyrosine (D), and then anti-Cbl after stripping.
One of the earliest events following TCR stimulation of T cells is the induction of tyrosine phosphorylation. In order to determine whether Lyp played a role in TCR signalling, human thymocytes were stimulated with anti-CD3 for various periods of time, Lyp immunoprecipitated and blotted with anti-phosphotyrosine. […] Once activated, the phosphorylation level of this protein remained constant over a period of 20 minutes. The 116 kD phosphorylated protein was identified by western blotting of Lyp immunoprecipitates from CD3 stimulated thymocytes with antibodies to various candidate proteins. […]

Lyn kinase = assay: Effect of Lyp1 on Lyn kinase activity; assay type: cell-based
Zap-70 = assay: Co-transfection of Lyp1 and kinase cDNA, kinase immunoprecipitation, anti-phosphotyrosine Western blot; assay type: cell-based
Procedure: as §1
(§3) cDNA for the phosphatase Lyp1 and the indicated kinase, in the eucaryotic expression vector pcDNA3, were transiently transfected into either the COS-7 monkey epithelial cell line (A) or the 293T human epithelial cell line as indicated. 48 hours after transfection, cells were harvested, lysates made in 1 & NP-40 lysis buffer and immunoprecipitations performed with antibodies to the transfected kinase. Immunoprecipitates were washed, boiled in SDS sample buffer and electrophoresed on SDS-PAGE. After electro-transfer to nitrocellulose membrane, Western blotting was performed with anti-phosphotyrosine antibodies and chemiluminescent detection reagents. […] Lyp1 could also down-regulate Zap-70 after its activation by Fyn in 293-T cells (B, lanes 3 and 4). The closely related Zap family kinase Syk was also unaffected by Lyp1 (C).

Fyn = assay: as above; assay type: cell-based; conditions: COS-7 and 293-T cells
Procedure: as §1, §3

Ick = assay: Co-transfection of Lyp1 and src family kinases; assay type: cell-based; conditions: Lyp1 with src family kinases

Row | 33P release from the substrate Raytide (Lyp1) | Molecule | Syk tyrosine phosphorylation (Syk) | Jak3 tyrosine phosphorylation (Jak3) | basal level of Cbl tyrosine phosphorylation (Cbl) | Lyn kinase activity (Lyn kinase) | Zap-70 phosphorylation after its activation by Fyn (Zap-70; 293-T cells) | Zap-70 tyrosine phosphorylation (Zap-70; COS-7 and 293-T cells) | Fyn tyrosine phosphorylation (Fyn) | Ick dephosphorylation (Ick)
1 |  | Lyp-N: catalytically inactive form of Lyp1 where Cysteine 227 is replaced by Serine (protein, UniProt Q9Y2R2 1-807, looked up, variant C227S) Tyrosine-protein phosphatase …: MDQREILQKFLDEAQSKKITKEEFANEFLKLKRQSTKYKADKTYPTTVAEKPKNIKKNRYKDILPYDYSRVELSLITSDEDSSYINANFIKGVYGPKAYIATQGPLSTTLLDFWRMIWEYSVLIIVMACMEYEMGKKKCERYWAEPGEMQLEFGPFSVSCEAEKRKSDYIIRTLKVKFNSETRTIYQFHYKNWPDHDVPSSIDPILELIWDVRCYQEDDSVPICIHSSAGCGRTGVICAIDYTWMLLKDGIIPENFSVFSLIREMRTQRPSLVQTQEQYELVYNAVLELFKRQMDVIRDKHSGTESQAKHCIPEKNHTLQADSYSPNLPKSTTKAAKMMNQQRTKMEIKESSSFDFRTSEISAKEELVLHPAKSSTSFDFLELNYSFDKNADTTMKWQTKAFPIVGEPLQKHQSLDLGSLLFEGCSNSKPVNAAGRYFNSKVPITRTKSTPFELIQQRETKEVDSKENFSYLESQPHDSCFVEMQAQKVMHVSSAELNYSLPYDSKHQIRNASNVKHHDSSALGVYSYIPLVENPYFSSWPPSGTSSKMSLDLPEKQDGTVFPSSLLPTSSTSLFSYYNSHDSLSLNSPTNISSLLNQESAVLATAPRIDDEIPPPLPVRTPESFIVVEEAGEFSPNVPKSLSSAVKVKIGTSLEWGGTSEPKKFDDSVILRPSKSVKLRSPKSELHQDRSSPPPPLPERTLESFFLADEDCMQAQSIETYSTSYPDTMENSTSSKQTLKTPGKSFTRSKSLKILRNMKKSICNSCPPNKPAESVQSNNSSSFLNFGFANRFSKPKGPRNPPPTWNI | No effect |  |  |  |  |  |  | 
2 | seven fold increase | Lyp1: human intracellular 105 kDa lymphoid protein tyrosine phosphatase, 808 amino acids, Sequence ID NO:2 (Table 2) (protein, listed as Homo sapiens) MDQREILQKFLDEAQSKKITKEEFANEFLKLKRQSTKYKADKTYPTTVAENAKNIKKNRYKDILPYDYSRVELSLITSDEDSSYINANFIKGVYGPKAYIATQGPLSTTLLDFWRMIWEYSVLIIVMACMEYEMGKKKCERYWAEPGEMQLEFGPFSVSCEAEKRKSDYIIRTLKVKFNSETRTIYQFHYKNWPDHDVPSSIDPILELIWDVRCYQEDDSVPICIHCSAGCGRTGVICAIVDYTWMLLKDGIIPENFSVFSLIREMRTQRPSLVQTQEQYELVYNAVLELFKRQMDVIRDKHSGTESQAKHCIPEKNHTLQADSYSPNLPKSTTKAAKMMNQQRTKMEIKESSSFDFRTSEISAKEELVLHPAKSSTSFDFLELNYSFDKNADTTMKWQTKAFPIVGEPLQKHQSLDLGSLLFEGCSNSKPVNAAGRYFNSKVPITRTKSTPFELIQQRETKEVDSKENFSYLESQPHDSCFVEMQAQKVMHVSSAELNYSLPYDSKHQIRNASNVKHHDSSALGVYSYIPLVENPYFSSWPPSGTSSKMSLDLPEKQDGTVFPSSLLPTSSTSLFSYYNSHSSLSLNSPTNISSLLNQESAVLATAPRIDDEIPPPLPVRTPESFIVVEEAGEFSPNVPKSLSSAVKVKIGTSLEWGGTSEPKKFDDSVILRPSKSVKLRSPKSELHQDRSSPPPPLPERTLESFFLADEDCMQAQSIETYSTSYPDTMENSTSSKQTLKTPGKSFTRSKSLKILRNMKKSICNSCPPNKPAESVQSNNSSSFLNFGFANRFSKPKGPRNPPPTWNI | unaffected; also recorded: little effect; also recorded: no Syk dephosphorylation | clearly reduced; also recorded: complete dephosphorylation | reduce significantly | strongly down-regulates | down-regulate | reduction; also recorded: complete dephosphorylation | unaffected; also recorded: no dephosphorylation | no dephosphorylation
